B1: TRIM14 (parent)
chain: REQADSCREQLDIMNDLSNRVWSI
B2: TEKT4 (parent)
chain: YARYHQAFADRDQSERQRHESQQL

Variants of: B1
Assay: protein stability index of a GFP-peptide fusion (GPS, HEK-293T) (PSI 1-6); higher = more stable
Conditions: c terminus: a fixed tail appended
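Note: lentivirally expressed fusions sorted by FACS into six bins by GFP to DsRed ratio, PSI derived from sequencing read proportions per bin multiplied by bin number.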

In order of rising protein stability index:
1. R20L  1.29
2. E9G  1.38
3. D12M  1.43
4. L11W  1.46
5. S18F  1.48
6. E9H  1.48
7. D16P  1.52
8. E9Q  1.53
9. N19F  1.54
10. Q10V  1.57
11. N19C  1.58
12. D12Q  1.59
13. D12N  1.6
14. D16M  1.61
15. S18Q  1.63
16. D16N  1.63
17. R20W  1.64
18. S18R  1.64
19. D16H  1.64
20. D16V  1.65
21. E9K  1.66
22. D16L  1.68
23. I13L  1.72
24. M14Y  1.72
25. S18L  1.73
26. L11Y  1.73
27. Q10A  1.74
28. I13W  1.76
29. M14F  1.76
30. S18H  1.77
31. D12G  1.77
32. D16I  1.77
33. M14W  1.78
34. R20Q  1.79
35. D16C  1.8
36. Q10M  1.81
37. S18G  1.83
38. D12C  1.84
39. S23T  1.84
40. L17W  1.85
41. E9R  1.85
42. D16F  1.86
43. S18K  1.87
44. Q10S  1.87
45. L11F  1.87
46. N15Q  1.89
47. D12V  1.9
48. I13F  1.9
49. D12K  1.92
50. S23Y  1.92
51. N15S  1.94
52. E9T  1.95
53. D12Y  1.96
54. N15Y  1.96
55. Q10W  1.98
56. N19I  1.98
57. R20C  1.99
58. S18V  1.99
59. D16T  1.99
60. M14L  1.99
61. R20I  2
62. Q10P  2
63. Q10Y  2
64. V21W  2.01
65. V21M  2.01
66. S18M  2.01
67. D16Y  2.01
68. I13V  2.02
69. Q10H  2.03
70. S23F  2.03
71. M14R  2.03
72. N19T  2.04
73. D16W  2.04
74. I13Y  2.04
75. S18T  2.05
76. D12A  2.05
77. D12H  2.05
78. E9N  2.05
79. D12R  2.06
80. D16E  2.06
81. S18Y  2.07
82. S23H  2.07
83. M14A  2.07
84. N19Y  2.08
85. N19L  2.08
86. S23K  2.09
87. S23A  2.09
88. L17Y  2.1
89. N19K  2.1
90. L11A  2.1
91. S23R  2.11
92. R20F  2.12
93. N19W  2.12
94. N15G  2.12
95. L17F  2.13
96. L11M  2.13
97. S18N  2.14
98. N15V  2.14
99. Q10K  2.16
100. I24V  2.17
101. N15R  2.17
102. L11C  2.17
103. V21R  2.18
104. Q10F  2.18
105. Q10G  2.18
106. N15P  2.18
107. D16Q  2.18
108. R20T  2.19
109. L11V  2.19
110. D16S  2.19
111. I13K  2.19
112. S18I  2.2
113. M14I  2.2
114. S18W  2.21
115. D12S  2.21
116. D12W  2.21
117. Q10E  2.21
118. S23M  2.22
119. R20M  2.24
120. D12I  2.24
121. Q10C  2.24
122. Q10N  2.24
123. L11H  2.24
124. I24F  2.25
125. L17R  2.25
126. N15A  2.25
127. D16G  2.25
128. R20Y  2.26
129. N19H  2.26
130. M14V  2.26
131. M14G  2.26
132. L17P  2.28
133. D16A  2.28
134. S18A  2.29
135. S18C  2.3
136. N19R  2.3
137. E9P  2.3
138. I24W  2.31
139. D12P  2.31
140. D12E  2.31
141. N15I  2.33
142. M14K  2.33
143. S18P  2.35
144. N15T  2.36
145. L11N  2.36
146. M14C  2.36
147. Q10R  2.38
148. L11K  2.38
149. Q10T  2.39
150. N19V  2.39
151. N15F  2.39
152. R20V  2.4
153. V21C  2.41
154. R20S  2.41
155. I13R  2.43
156. N15K  2.44
157. E9I  2.44
158. V21S  2.45
159. L17Q  2.45
160. I13A  2.45
161. M14H  2.45
162. I24L  2.46
163. L17A  2.46
164. R20P  2.48
165. M14T  2.5
166. I13S  2.51
167. I24C  2.53
168. I24Y  2.53
169. L17C  2.53
170. D12T  2.53
171. N19M  2.53
172. N15C  2.53
173. L11P  2.53
174. L11I  2.53
175. N15H  2.54
176. L17N  2.56
177. S23C  2.57
178. N15M  2.58
179. L17I  2.59
180. L17K  2.59
181. E9S  2.6
182. N19G  2.61
183. L11G  2.62
184. L17M  2.63
185. Q10I  2.63
186. I13M  2.63
187. S23E  2.65
188. S23G  2.66
189. E9M  2.66
190. L17V  2.68
191. S23Q  2.68
192. N15W  2.68
193. V21H  2.69
194. V21K  2.69
195. N15D  2.69
196. I13G  2.69
197. L17T  2.7
198. L17H  2.71
199. D12F  2.71
200. S23N  2.71
201. L17S  2.72
202. R20H  2.73
203. Q10D  2.74
204. I13T  2.74
205. S18E  2.75
206. S23I  2.75
207. E9L  2.75
208. V21T  2.76
209. N15E  2.76
210. R20G  2.77
211. R20K  2.78
212. W22Y  2.78
213. I24M  2.79
214. W22I  2.79
215. M14Q  2.79
216. R20A  2.8
217. S18D  2.8
218. I13Q  2.8
219. S23L  2.81
220. E9F  2.81
221. M14E  2.81
222. M14S  2.81
223. W22F  2.82
224. D16R  2.85
225. V21G  2.87
226. I13P  2.87
227. V21L  2.88
228. I13H  2.88
229. I24A  2.89
230. R20N  2.91
231. N19A  2.91
232. N15L  2.91
233. I13N  2.92
234. I13C  2.93
235. M14P  2.93
236. N19Q  2.94
237. N19P  2.95
238. V21A  2.96
239. L17G  2.96
240. V21N  2.97
241. N19E  2.98
242. M14N  2.98
243. W22L  3
244. V21P  3.01
245. V21I  3.01
246. M14D  3.01
247. L11S  3.03
248. R20E  3.04
249. S23W  3.05
250. V21Q  3.06
251. V21F  3.06
252. L11D  3.08
253. L11T  3.1
254. L11R  3.11
255. W22V  3.14
256. N19D  3.16
257. N19S  3.17
258. L11Q  3.17
259. L17D  3.18
260. V21Y  3.19
261. W22M  3.29
262. L17E  3.3
263. S23V  3.3
264. R20D  3.31
265. I24Q  3.34
266. D16K  3.35
267. I13D  3.37
268. I24R  3.44
269. I24S  3.46
270. I13E  3.46
271. S23P  3.48
272. E9W  3.53
273. E9Y  3.54
274. I24K  3.55
275. V21E  3.58
276. I24H  3.6
277. I24P  3.64
278. I24E  3.68
279. I24G  3.72
280. W22N  3.72
281. W22C  3.77
282. W22H  3.79
283. W22A  3.85
284. L11E  3.9
285. V21D  3.92
286. I24N  3.95
287. W22K  3.98
288. I24T  4.01
289. I24D  4.01
290. W22Q  4.12
291. W22T  4.13
292. S23D  4.14
293. W22S  4.21
294. W22R  4.28
295. W22P  4.32
296. W22G  4.34
297. W22D  4.56
298. W22E  4.84

Variants of: B2
Assay: as above
Conditions: c terminus: a fixed tail appended

In order of rising protein stability index:
1. A2C  1.48
2. A2T  1.67
3. A2Q  1.84
4. A2V  1.87
5. A2S  1.92
6. Y1F  2.07
7. A2L  2.09
8. A2M  2.27
9. A2I  2.5
10. A2W  2.68
11. A2P  2.7
12. A2N  2.85
13. A2F  2.87
14. Y1C  3.46
15. Y1W  3.69
16. A2K  3.82
17. Y1A  3.9
18. Y1R  4.08
19. A2H  4.12
20. A2R  4.27
21. A2E  4.29
22. A2D  4.3
23. Y1M  4.44
24. Y1H  4.54
25. Y1L  4.55
26. Y1I  4.55
27. Y1T  4.62
28. Y1Q  4.76
29. Y1K  4.76
30. Y1S  4.87
31. Y1N  4.9
32. Y1V  4.91
33. Y1E  5
34. Y1P  5.02
35. Y1G  5.11
36. Y1D  5.23

Reference: the supplement of paper PMC10567573
